Source: article PMC10288592

Biological target: PYCO1(452 to 592) (Phaeodactylum tricornutum)
Test: cryo-EM structure; single particle cryo-EM of the Rubisco–PYCO1(452 to 592) complex

Substance: PYCO1(452 to 592) (domain or fragment)
- stoichiometry N: 4
